Reference: patent publication US20200031927A1

How the values were obtained:
[1] = target: soluble KIR3DL1*033-Fc (human) (UniProt P43629); assay: SPR (BIACORE T-100)
[2] = target: soluble KIR3DL1*002-Fc (human) (UniProt P43629); assay: SPR (BIACORE T-100)
[3] = target: soluble KIR3DL1*001-Fc (human) (UniProt P43629); assay: SPR (BIACORE T-100)
[4] = target: soluble KIR3DL1*002-Fc (human) (UniProt P43629); assay: SPR (BIACORE T-100), kinetics

soluble KIR3DL1*002-Fc (human), sequence (P43629 other isoform, or with tags, fused parts or gaps): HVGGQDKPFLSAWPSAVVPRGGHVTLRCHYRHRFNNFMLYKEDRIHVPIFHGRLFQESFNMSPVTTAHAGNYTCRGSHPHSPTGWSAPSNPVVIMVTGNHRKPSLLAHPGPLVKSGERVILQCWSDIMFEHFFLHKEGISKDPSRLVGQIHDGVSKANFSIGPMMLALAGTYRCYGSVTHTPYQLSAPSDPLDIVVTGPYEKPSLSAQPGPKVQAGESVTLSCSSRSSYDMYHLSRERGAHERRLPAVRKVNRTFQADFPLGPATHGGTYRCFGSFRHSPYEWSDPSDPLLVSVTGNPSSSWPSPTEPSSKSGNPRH
soluble KIR3DL1*033-Fc (human), sequence (P43629 other isoform, or with tags, fused parts or gaps): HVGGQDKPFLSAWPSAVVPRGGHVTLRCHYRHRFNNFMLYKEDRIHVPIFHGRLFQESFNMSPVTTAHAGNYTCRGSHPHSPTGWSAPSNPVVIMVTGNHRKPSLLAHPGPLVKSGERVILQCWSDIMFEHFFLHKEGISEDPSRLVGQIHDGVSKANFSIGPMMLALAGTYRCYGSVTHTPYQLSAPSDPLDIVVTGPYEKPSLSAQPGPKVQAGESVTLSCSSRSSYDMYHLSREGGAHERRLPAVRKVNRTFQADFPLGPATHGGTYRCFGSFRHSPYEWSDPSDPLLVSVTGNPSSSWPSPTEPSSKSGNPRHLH

- Kd [1]: 0.0086 µM
- Kd [2]: 0.0306 µM
- Kd [3]: 0.0141 µM
- Kd [4]: 0.0306 µM
- koff [4]: 0.000992 s⁻¹
- kon [4]: 32400 M⁻¹ s⁻¹
Substance: DX9 (PHB4385) (antibody)
